Values joined by “and” are separate entries in the source; they are usually repeats but may differ in a detail not shown here. Equal entries are not always repeated. Where two headings read alike, the source gives them in different places.

This is an account of results in patent US20240109967A1.

Experiment [1] has as its target feline CTLA-4 in feline CD5+ leucocytes (feline) (UniProt Q9XTA1). The experiment can be described thus: flow cytometry, feline PBMC, Surface labeling, anti-HA secondary alone, gated Lymphocytes>Single cells>Live>CD5+. Background: In flow cytometry, cells or beads pass a laser one at a time.
Experiment [2] concerns the target full length canine CTLA-4 on cells (KTδ32.cCTLA-4 cells; canine T cells and regulatory T cells) (canine) (UniProt Q9XSI1).
The target is the same in experiment [3]. This is another data set of the same source.
Experiment [4] shares this target. The source holds these as a separate data set.
In experiment [5] the target is feline CTLA-4 in feline CD5+ leucocytes (feline) (UniProt Q9XTA1).
For experiment [6] the target is unchanged. The source holds these as a separate data set.

For 2nd only (anti-HA secondary alone), the % of gated cells in the CTLA4 gate in experiment [1] worked out at 3.8%.

Take irrelevant MERS mAb (antibody): the % of cells in the CTLA4(HA.APC) gate in experiment [2] was 4.23% and 1.9%. Further, the % of gated cells in Q5 (CTLA4+ CD4-) in experiment [3] was 0.014% and 4.28% and 0.42%. Moreover, in experiment [3], the % of gated cells in Q6 (CTLA4+ CD4+) was 0.72% and 5.32% and 0.68%. Also, the % of gated cells in the CTLA4 gate is 8.33% and 0% in experiment [4]; 0.5% in experiment [5]; 0.13% in experiment [6].
